For one series, the target named is T1, Mmi1 YTH domain (Schizosaccharomyces pombe, UniProt O74958 282-488).
T1 sequence: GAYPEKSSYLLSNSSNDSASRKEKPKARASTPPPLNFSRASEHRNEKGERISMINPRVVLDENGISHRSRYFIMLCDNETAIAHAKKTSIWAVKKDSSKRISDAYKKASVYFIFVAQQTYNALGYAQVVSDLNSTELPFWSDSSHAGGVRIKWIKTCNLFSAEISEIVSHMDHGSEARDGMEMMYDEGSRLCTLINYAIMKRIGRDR
The experiment in a line: fluorescence polarization; 20 mM HEPES pH 7.5, 100 mM NaCl, 1 mM Mg(OAc)2, 0.1 mM TCEP, 10 nM labeled RNA, 10 min at room temperature; Hill-slope fit. Particulars: protein: recombinant. A general note: In fluorescence polarisation assays a small probe gives low polarisation when free and higher when bound to something large.

Series [1] has as its target recombinant S. pombe Ccr4-Not complex (seven core subunits) (S. pombe) (UniProt O74856).

For orientation: Kd means the constant that tells how readily two partners part at equilibrium.

Sequence of recombinant S. pombe Ccr4-Not complex (seven core subunits) (S. pombe) (O74856 whole entry, looked up, tested part not stated, one chain of several): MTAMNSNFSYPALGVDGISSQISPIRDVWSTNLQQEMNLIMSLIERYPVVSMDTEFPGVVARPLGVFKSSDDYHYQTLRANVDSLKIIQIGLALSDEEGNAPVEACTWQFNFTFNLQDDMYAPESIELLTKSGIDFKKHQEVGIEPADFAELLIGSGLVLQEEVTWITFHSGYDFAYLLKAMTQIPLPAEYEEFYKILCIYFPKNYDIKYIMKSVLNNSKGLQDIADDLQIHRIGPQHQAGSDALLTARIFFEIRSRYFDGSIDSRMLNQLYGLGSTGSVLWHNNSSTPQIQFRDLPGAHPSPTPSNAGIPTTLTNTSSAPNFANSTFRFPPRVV

B1: rec8 UUAAAC (ssRNA)
RNA: CUCUUUAAACCUAAAAAGC
With B1, in the series with Mmi1 YTH domain (label: 3' 6-FAM), the Kd came to 226 ± 15 nM.

B2: rec8 UUCUCC (ssRNA)
RNA: CUCUUUCUCCCUACAAAGC
For the molecule B2, the dissociation constant (Kd) with Mmi1 YTH domain (label: 3' 6-FAM) was 1370 ± 140 nM.

B3: rec8 UUAACC (ssRNA)
RNA: CUCUUUAACCCUAAAAAGC
As for B3, in the series with Mmi1 YTH domain (label: 3' 6-FAM), the Kd came to 311 ± 13 nM.

B4: Mmi1 (recombinant, S. pombe) (natural protein)
chain: MSNTNFSTSRSSKSIPELPNLEALRSLWPPPSLNESGDTRSVWTTHTGEPVASSVLSTSGSNNFSSPLKRPAPESHDAPIGRRLMVDDPRLIKHGKYDFSRHCTDYGHSYEWPYFRSLRRESMLYHTSGSYPESQPPYSSYSTDAPHYYHAGSESSAYYDSRSRLHGIQPPPKRRTLSPPPRRLADPVVVGSSRYVEEEVYRRPPYTLASEVPSSASAYQAGYSSYPVRSSPQLSHEDTRHGIASSGSTRYPFVPANTRASHSPSLLEPYAHSLPSSVAPVGAYPEKSSYLLSNSSNDSASRKEKPKARASTPPPLNFSRASEHRNEKGERISMINPRVVLDENGISHRSRYFIMLCDNETAIAHAKKTSIWAVKKDSSKRISDAYKKASVYFIFVAQQTYNALGYAQVVSDLNSTELPFWSDSSHAGGVRIKWIKTCNLFSAEISEIVSHMDHGSEARDGMEMMYDEGSRLCTLINYAIMKRIGRDR
For the molecule B4, the rate of deadenylation of the rec8^UUAAAC-A30 target RNA by Ccr4-Not with bound Mmi1, against Ccr4-Not without Mmi1 in series [1] is 5 fold.

B5: rec8 UUACAC (ssRNA)
RNA: CUCUUUACACCUAAAAAGC
For B5, the Kd with Mmi1 YTH domain (label: 3' 6-FAM) was 460 ± 25 nM.

B6: rec8 UUCAAC (ssRNA)
RNA: CUCUUUCAACCUAAAAAGC
In the case of B6, the Kd in the series with Mmi1 YTH domain (label: 3' 6-FAM) was 433 ± 33 nM.

B7: rec8 UUAAAG (ssRNA)
RNA: CUCUUUAAAGCUAAAAAGC
In the case of B7, the Kd in the series with Mmi1 YTH domain (label: 3' 6-FAM) came out at 231 ± 7 nM.

B8: 20-mer unstructured RNA (ssRNA)
RNA: CAGCUCCGCAUCCCUUUCCC
On to B8, for which the Kd in the series with Mmi1 YTH domain was determined as 13900 ± 1600 nM.

B9: rec8 UGAAAC (ssRNA)
RNA: CUCUUGAAACCUAAAAAGC
Consider B9, for which, in the series with Mmi1 YTH domain (label: 3' 6-FAM), the Kd worked out at 216 ± 14 nM.

These data come from article PMC5120349, “Reconstitution of Targeted Deadenylation by the Ccr4-Not Complex and the YTH Domain Protein Mmi1”.
